For this assay, the target named is Met receptor on MK keratinocytes (mouse) (UniProt P16056). Description: cell-based or functional assay.

In turn, “InIB full length (from UniProt P0DQD2 31-630) (ligand)” gave a stimulation of DNA synthesis in MK keratinocytes, lowest active concentration of 100 pM.

For the origin of these results see patent EP2138508A1.
